The term Kd denotes the free concentration of one partner at which half of the binding sites on the other are occupied at equilibrium, for simple one-to-one binding. A lower Kd goes with higher affinity.

The target in one assay is T1, B7-H3 peptide 8 (human).
T1 peptide: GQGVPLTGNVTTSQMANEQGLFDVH
Kind of assay: biolayer interferometry (Octet), epitope mapping table [panel D, row Peptide 8]. The protocol: (§1) The Octet RED384 System (FortdBio) was used to further characterize the chimeric and murine clones. The kinetics of the clones were tested by measuring the interaction between the antibody and its target by bio-layer interferometry technology.
(§2) The inventors generated 10 peptides from the extracellular domain of B7-H3 with a span of 25 amino acids and an overlap of 5 amino acids with each subsequent peptide.
(In general: In BLI a coated tip is dipped into the sample, and binding shifts an interference pattern.)

Assay [1] concerns the target T2, B7-H3 peptide 2 (human).
T2 peptide: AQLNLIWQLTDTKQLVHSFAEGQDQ
Description: biolayer interferometry (Octet) traces, concentrations not printed [Peptide 2, column ChT-1A5].

Assay [2] has as its target T3, B7-H3 peptide 3 (human).
T3 peptide: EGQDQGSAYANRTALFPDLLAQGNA
Description: biolayer interferometry (Octet) traces, concentrations not printed [Peptide 3, column ChT-1A5].

The target of assay [3] is T4, B7-H3 peptide 6 (human).
T4 peptide: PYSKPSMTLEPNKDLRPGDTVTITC
Description: biolayer interferometry (Octet), epitope mapping table [panel D, row Peptide 6]. As for the experimental part:
as §1, §2

Another assay deals with T5, B7-H3 peptide 10 (human).
T5 peptide: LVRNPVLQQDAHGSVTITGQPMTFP
Description: biolayer interferometry (Octet), epitope mapping table [panel D, row Peptide 10]. The protocol: as §1, §2

For assay [4], the target named is T6, B7-H3 peptide 1 (human).
T6 peptide: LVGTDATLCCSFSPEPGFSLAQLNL
Kind of assay: biolayer interferometry (Octet) traces, concentrations not printed [Peptide 1, column ChT-1A5].

The target in another assay is T7, B7-H3 peptide 7 (human).
T7 peptide: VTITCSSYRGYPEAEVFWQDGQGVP
Kind of assay: biolayer interferometry (Octet), epitope mapping table [panel D, row Peptide 7]. As for the experimental part: as §1, §2

The target of assay [5] is T8, B7-H3 peptide 4 (human).
T8 peptide: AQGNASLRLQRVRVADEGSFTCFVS
Description: biolayer interferometry (Octet) traces, concentrations not printed [Peptide 4, column ChT-1A5]. As for the experimental part: as §1, §2

For assay [6], the target named is T6, B7-H3 peptide 1. Kind of assay: biolayer interferometry (Octet), epitope mapping table [panel D, row Peptide 1]. The protocol:
as §1, §2

For assay [7], the target named is T9, B7-H3 peptide 5 (human).
T9 construct: Said to lie in the IgV domain spanning through the FG loop
T9 peptide: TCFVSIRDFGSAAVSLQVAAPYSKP
Kind of assay: biolayer interferometry (Octet), number beside the raw traces [panel D, T-1A5-peptide 5].

In assay [8] the target is T2, B7-H3 peptide 2. Kind of assay: biolayer interferometry (Octet) traces, concentrations not printed [Peptide 2, column T-1A5]. The protocol: as §1, §2
Assay [9] deals with T8, B7-H3 peptide 4. Kind of assay: biolayer interferometry (Octet) traces, concentrations not printed [Peptide 4, column T-1A5].
The target of assay [10] is T4, B7-H3 peptide 6. Description: biolayer interferometry (Octet) traces, concentrations not printed [continued), Peptide 6, left column]. As for the experimental part: as §1, §2
The target in assay [11] is T3, B7-H3 peptide 3. Description: biolayer interferometry (Octet) traces, concentrations not printed [Peptide 3, column T-1A5].
For assay [12], the target named is T9, B7-H3 peptide 5. Description: biolayer interferometry (Octet), epitope mapping with B7-H3 peptides [panel D, row Peptide 5]. The protocol:
as §1, §2

B1: human-mouse chimeric anti-B7-H3 antibody ChT-1A5 (antibody, human IgG1, kappa)
heavy: not shown
light: QIVLIQSPAIMSASPGEKVTMTCSASSSISYMYWYQQKPGTSPKRWIFETSKLASGVPARFSGSGSGTSYSLTISSMEAEDAATYYCHQRSSYPTFGGGTKLEIKRTVAAPSVFIFPPSDEQLKSGTASVVCLLNNFYPREAKVQWKVDNALQSGNSQESVTEQDSKDSTYSLSSTLTLSKADYEKHKVYACEVTHQGLSSPVTKSFNRGEC
notes: also called chimeric T-1A5 antibody
Turning to B1, the binding result with B7-H3 peptide 8, with B7-H3 peptide 2 [1], in the assay with B7-H3 peptide 3 [2], in the assay with B7-H3 peptide 6 [3], with B7-H3 peptide 10 and with B7-H3 peptide 1 [4] was “no binding” in each case. For the same molecule, the binding result in the assay with B7-H3 peptide 7 and in the assay with B7-H3 peptide 4 [5] was “no binding” throughout.

B2: anti-B7-H3 monoclonal antibody T-1A5 (mouse, isotype IgG1) (antibody)
heavy: QVQLQQSGAELVKPGASVKLSCKASGYTFTSYDINWVRQRPEQGLEWIGWIFPGDDTTNYNENFKGKATLTADKSSSTAYMQLTRLTSEDSAVFFCARSVGFDYWGQGTTLTVSSAKTTPPSVYPLAPGSAAQTNSMVTLGCLVKGYFPEPVTVTWNSGSLSSGVHTFPAVLQSDLYTLSSSVTVPSSTWPSETVTCNVAHPASSTKVDKKIVPRDCGCKPCICTVPEVSSVFIFPPKPKDVLTITLTPKVTCVVVDISKDDPEVQFSWFVDDVEVHTAQTQPREEQFNSTFRSVSELPIMHQDWLNGKEFKCRVNSAAFPAPIEKTISKTKGRPKAPQVYTIPPPKEQMAKDKVSLTCMITDFFPEDITVEWQWNGQPAENYKNTQPIMDTDGSYFVYSKLNVQKSNWEAGNTFTCSVLHEGLHNHHTEKSLSHSPGK
light: QIVLIQSPAIMSASPGEKVTMTCSASSSISYMYWYQQKPGTSPKRWIFETSKLASGVPARFSGSGSGTSYSLTISSMEAEDAATYYCHQRSSYPTFGGGTKLEIKRADAAPTVSIFPPSSEQLTSGGASVVCFLNNFYPKDINVKWKIDGSERQNGVLNSWTDQDSKDSTYSMSSTLTLTKDEYERHNSYTCEATHKTSTSPIVKSFNRNEC
notes: also called T-1A5A10; mAb T-1A5
In the case of B2, the binding result in the assay with B7-H3 peptide 1 [6], with B7-H3 peptide 8, with B7-H3 peptide 2 [8], with B7-H3 peptide 10, with B7-H3 peptide 7 and with B7-H3 peptide 4 [9] was “no binding” each time. Also, the binding result with B7-H3 peptide 6 [10] and in the assay with B7-H3 peptide 3 [11] was “no binding” in each case. Further, the equilibrium dissociation constant (Kd) with B7-H3 peptide 5 [7] and with B7-H3 peptide 5 [12] was 151 nM throughout.

(Values after patent US20250230244A1 (University of Texas, published 2025).)
